{"source": "patent US20140017790A1", "about": "“CONTROL AGENT FOR CONTROLLING UNDIFFERENTIATED STATE AND USE THEREOF” (RIKEN, priority 2011, published 2014)", "molecules": {"B1": {"name": "CCL2: mouse recombinant CCL2 (MCP-1, #479-JE-010, R&D Systems); in Examples 1, 3, 4(1), 5 mouse CCL2 (SEQ ID NO: 3) overexpressed from Ccl2 expression vector (protein, listed as Mus musculus)", "chain": "MQVPVMLLGLLFTVAGWSIHVLAQPDAVNAPLTCCYSFTSKMIPMSRLESYKRITSSRCPKEAVVFVTKLKREVCADPKKEWVQTYIKNLDRNQMRSEPTTLFKTASALRSSAPLNVKLTRKSEANASTTFSTTTSSTSVGVTSVTVN"}}, "assay_type_in_all_cases": "cell-based", "key": {"human iPS cells [1]": {"test_system": "human iPS cells", "assay": "phase-contrast morphology of human iPS cells with JAK or PI3K inhibitor", "details": "inhibitor not added (DMSO added), 6 days; bFGF(+)/CCL2(-) or bFGF(-)/CCL2(+)", "protocol": "As a JAK inhibitor, a JAK inhibitor I (Merck) was used. As PI3K inhibitor, the same LY294002 as used in Example 4 was used. Human iPS cells were cultured for 6 days under feeder conditions in the same manner as in the above item (1), except that not only the CCL2 but also the JAK inhibitor or the PI3K inhibitor further was added to the medium. In the medium, the concentration of the Jak inhibitor was set to 10 ng/ml, and the concentration of the PI3K inhibitor was set to 5 ng/ml.\nFurthermore, as a control, the cells were cultured in the same manner as in the above using the following media, respectively: a medium containing bFGF instead of the CCL2 and containing DMSO (5 ng/ml) instead of the inhibitor; and a medium containing bFGF (5 ng/ml) instead of the CCL2 and containing the inhibitor.\nThe phase-contrast micrographs show the results obtained under the conditions of, from the above: the inhibitor not added (DMSO added); the JAK inhibitor added; and the PI3K inhibitor added."}, "AKT": {"test_system": "AKT", "assay": "Western blotting, phosphorylation of AKT in mouse iPS cells", "details": "CCL2 overexpressed, relative to negative control", "protocol": "The mouse iPS cells transfected with the Ccl2 expression vector were cultured for 24 hours in the same manner as in Example 1. After the culture, the mouse iPS cells were washed with PBS, and then were suspended in 100 μl of a mammalian m-PER lysis buffer. The suspension was passed through a 26-gauge needle for 10 minutes to homogenize the cells. Then, the suspension was centrifuged at 13,000 rpm and 4° C. for 5 minutes, and the supernatant was collected. The protein concentration in the supernatant was measured using a Pierce (registered trademark) BCA Protein assay (trade name, Thermo Scientific). Next, the supernatant was subjected to Western blotting to detect a target protein. Specifically, first, the supernatant (total protein: 10 μg) was applied to a Novex Gel electrophoresis system with 4%-12% Bis-Tris gels, and was blotted on a nitrocellulose membrane. Then, the membrane was incubated with a primary antibody against the target protein. After washing the membrane, the membrane was incubated with a labeled secondary antibody labeled with horseradish peroxidase, and a color-developing reaction was caused using a coloring reagent (trade name: ECL plus, GE Healthcare). Then, luminescence on the membrane was detected using a Fuji LAS-3000 luminescent image analyzer. […]"}, "mouse ES cells": {"test_system": "mouse ES cells", "assay": "quantitative RT-PCR of undifferentiated marker genes in mouse ES cells", "details": "LIF 1000 units/ml, CCL2 500 ng/ml", "protocol": "A PrimeScript RT-PCR Kit (trade name, TAKARA BIO INC.), an ABI 7500 Fast real time PCR system (trade name, Applied BioSystems), and a SYBR (registered trademark) Premix Ex Taq (trade name, TAKARA BIO INC.) were used in accordance with their protocols. PCR was carried out by conducting 40 cycles of treatment with a treatment at 94° C. for 5 second and at 62.5° C. for 20 seconds as 1 cycle. The expression level of each gene was calculated by normalizing the relative amount of mRNA in the gene to Gapdh mRNA according to the 2^−ΔΔ^CT method (Thomse R, Solvsten C A, Linnet T E, et al., Analysis of qPCR data by converting exponentially related Ct values into linearly related XO values. J Bioinform Comput Biol 2010: 8: 885-900.).\n[…] Furthermore, as a negative control, the expression levels of the undifferentiated marker genes were determined in the same manner regarding the mouse ES […] Then, the fold changes in the expression level relative to the negative control were calculated.\nFIG. […] The vertical axis indicates the fold change (-fold), and the horizontal axis indicates the examined undifferentiated marker genes. […] In the former case (open bar), the concentration of the LIF in the medium was 1000 units/ml and the concentration of the CCL2 in the medium was 500 ng/ml. […]"}, "human iPS cells [2]": {"test_system": "human iPS cells", "assay": "EB formation and spontaneous differentiation, cell morphology", "details": "third day from the plating; iPS cells precultured 6 days with the substance", "protocol": "Human iPS cells were cultured for 6 days under feeder conditions in the same manner as in Example 7. Thereafter, embryonic bodies (EBs) were produced. EB formation is known as a spontaneous differentiation-inducing method for inducing the differentiation of iPS cells. Specifically, first, a ROCK inhibitor (Y-27632, WAKO) was added to the culture solution being used for the culture of the human iPS cells so that the concentration thereof was […], and the human iPS cells were cultured for 1 hour under the conditions of 37° C. and 5% CO2. Then, the feeder cells used for the culture were dissociated with a human ES/iPS cell dissociation solution (CTK solution), and the human iPS cells were collected. Then, 1×10^6 of the human iPS cells were seeded in an ultra-low adhesion culture vessel, and cultured for 6 days in an EB preparation medium (DMEM/F12, Knockout SR, L-glutamine, NEAA (non-essential amino acid (GIBCO)), 2-ME, Pen/Strep). The medium was replaced every two days.\nNext, spontaneous differentiation was induced. Specifically, the produced EBs were seeded in gelatin coated dishes so that each gelatin coated dish contained one EB. Each EB was cultured for 14 days in a medium (DMEM) containing 20% FBS, and then observed with a microscope. The medium was replaced every two days. The photographs in FIG. 18 show the cell morphology on the third day from the plating."}, "KLF4": {"test_system": "KLF4", "assay": "KLF4/GAPDH ratio in human iPS cells", "details": "feeder conditions, 6 days, negative control (bFGF) = 1", "protocol": "Then, the ratio of the phosphorylated AKT to the non-phosphorylated AKT (p-AKT/AKT) was determined. Assuming that the value of the p-AKT/AKT in the negative control was “1”, the relative value was calculated. Also, the ratio of the KLF4 gene expression to the GAPDH gene expression (KLF4/GAPDH) was determined. Assuming that KLF4/GAPDH in the negative control was “1”, the relative value was calculated.\nAlso, the ratio of KLF4 to GAPDH (KLF4/GAPDH) was determined. Assuming that KLF4/GAPDH in the negative control was “1”, the relative value was calculated. FIG. 15D is a graph showing the relative value of the ratio of KLF4 to GAPDH (KLF4/GAPDH)."}}}
{"molecule": "B1", "values": [{"measurement": "undifferentiation potency, cell morphology", "setting": "human iPS cells [1]", "value": "little differentiated cells"}, {"measurement": "phosphorylation of AKT (pAKT/AKT)", "setting": "AKT", "value": "not promoted"}, {"measurement": "expression of the Klf4 gene, fold change relative to negative control", "setting": "mouse ES cells", "value": "increased markedly"}, {"measurement": "expression of the Tbx3 gene, fold change relative to negative control", "setting": "mouse ES cells", "value": "increased markedly"}, {"measurement": "morphology of EB after spontaneous differentiation-inducing culture", "setting": "human iPS cells [2]", "value": "ES cell-like morphology"}, {"measurement": "KLF4 expression (KLF4/GAPDH), relative value", "setting": "KLF4", "value": "about 1.7 fold"}]}
